Test results published in US20200071424A1 (SHIONOGI, published 2020).

T1: human EL (vascular endothelial lipase) (human, UniProt Q9Y5X9 21-500)
T1 sequence: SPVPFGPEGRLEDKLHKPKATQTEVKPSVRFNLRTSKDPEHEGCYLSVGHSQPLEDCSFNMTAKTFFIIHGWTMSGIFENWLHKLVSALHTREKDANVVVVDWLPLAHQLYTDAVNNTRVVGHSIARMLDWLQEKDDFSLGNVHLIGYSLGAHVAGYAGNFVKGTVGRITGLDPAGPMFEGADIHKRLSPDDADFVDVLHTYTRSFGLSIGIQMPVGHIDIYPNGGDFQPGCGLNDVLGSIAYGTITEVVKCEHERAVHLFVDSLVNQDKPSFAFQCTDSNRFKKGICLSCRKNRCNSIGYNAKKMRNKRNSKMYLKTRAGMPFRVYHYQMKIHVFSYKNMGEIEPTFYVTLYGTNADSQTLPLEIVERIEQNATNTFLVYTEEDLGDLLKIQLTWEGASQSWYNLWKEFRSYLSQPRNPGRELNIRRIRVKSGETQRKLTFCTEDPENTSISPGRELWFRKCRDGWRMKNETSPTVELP

T2: human LPL (lipoprotein lipase) (human, UniProt P06858 28-475)
T2 sequence (looked up): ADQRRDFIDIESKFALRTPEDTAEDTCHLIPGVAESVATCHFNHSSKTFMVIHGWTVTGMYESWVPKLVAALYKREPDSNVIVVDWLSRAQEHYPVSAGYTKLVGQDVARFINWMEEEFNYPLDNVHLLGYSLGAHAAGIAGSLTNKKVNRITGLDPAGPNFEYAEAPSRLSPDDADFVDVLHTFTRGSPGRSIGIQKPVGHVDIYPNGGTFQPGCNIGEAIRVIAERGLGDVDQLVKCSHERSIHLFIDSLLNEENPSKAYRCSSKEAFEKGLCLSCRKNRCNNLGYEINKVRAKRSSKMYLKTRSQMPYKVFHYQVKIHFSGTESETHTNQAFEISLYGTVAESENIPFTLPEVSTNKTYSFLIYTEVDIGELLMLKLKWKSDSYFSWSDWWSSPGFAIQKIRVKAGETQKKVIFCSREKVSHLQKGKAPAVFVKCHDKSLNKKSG

T3: human HL (hepatic lipase) (human, UniProt P11150 23-499)
T3 sequence (looked up): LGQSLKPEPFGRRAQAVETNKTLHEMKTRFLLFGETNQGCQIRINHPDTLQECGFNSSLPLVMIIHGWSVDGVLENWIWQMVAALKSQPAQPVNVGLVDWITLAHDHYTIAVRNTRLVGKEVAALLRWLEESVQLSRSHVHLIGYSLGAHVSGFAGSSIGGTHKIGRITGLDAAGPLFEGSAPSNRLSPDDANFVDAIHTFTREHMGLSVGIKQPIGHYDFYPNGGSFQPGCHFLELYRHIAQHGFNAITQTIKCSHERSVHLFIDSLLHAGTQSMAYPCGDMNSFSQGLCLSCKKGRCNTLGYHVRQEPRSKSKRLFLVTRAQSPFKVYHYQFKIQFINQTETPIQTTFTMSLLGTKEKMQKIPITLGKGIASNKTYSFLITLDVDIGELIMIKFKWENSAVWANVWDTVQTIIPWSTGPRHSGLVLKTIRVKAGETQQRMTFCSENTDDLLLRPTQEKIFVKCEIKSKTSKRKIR

T4: human [1-305]-mouse chimeric EL (human; mouse, UniProt Q9WVG5 306-500)
T4 sequence: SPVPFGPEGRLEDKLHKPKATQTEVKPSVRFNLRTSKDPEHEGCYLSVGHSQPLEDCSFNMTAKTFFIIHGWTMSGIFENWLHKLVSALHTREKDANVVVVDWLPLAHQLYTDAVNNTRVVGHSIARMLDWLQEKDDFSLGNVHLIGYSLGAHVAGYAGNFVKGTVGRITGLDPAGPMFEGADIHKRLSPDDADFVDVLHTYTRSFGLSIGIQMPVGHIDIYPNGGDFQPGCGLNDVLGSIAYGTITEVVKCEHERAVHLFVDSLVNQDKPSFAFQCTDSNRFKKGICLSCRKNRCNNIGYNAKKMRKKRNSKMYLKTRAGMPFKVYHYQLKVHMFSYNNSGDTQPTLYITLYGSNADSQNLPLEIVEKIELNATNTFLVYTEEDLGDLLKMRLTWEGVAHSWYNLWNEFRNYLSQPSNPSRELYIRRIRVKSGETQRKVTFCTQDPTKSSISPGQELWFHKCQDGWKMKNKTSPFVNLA

T5: mouse EL (mouse, UniProt Q9WVG5 21-500)
T5 sequence (looked up): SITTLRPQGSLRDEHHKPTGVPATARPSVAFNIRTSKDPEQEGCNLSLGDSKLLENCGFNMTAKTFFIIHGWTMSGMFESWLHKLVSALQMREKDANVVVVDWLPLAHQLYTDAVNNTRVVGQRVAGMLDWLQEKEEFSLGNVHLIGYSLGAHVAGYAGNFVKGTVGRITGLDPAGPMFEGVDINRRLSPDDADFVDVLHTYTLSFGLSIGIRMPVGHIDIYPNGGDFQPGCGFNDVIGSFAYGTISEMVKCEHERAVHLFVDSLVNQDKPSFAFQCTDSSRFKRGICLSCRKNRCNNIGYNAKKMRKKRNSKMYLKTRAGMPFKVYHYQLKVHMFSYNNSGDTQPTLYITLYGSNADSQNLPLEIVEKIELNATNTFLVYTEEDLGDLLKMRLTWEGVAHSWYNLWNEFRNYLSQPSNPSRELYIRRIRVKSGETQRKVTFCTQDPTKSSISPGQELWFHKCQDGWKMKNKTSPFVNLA


Key:
[1] = biological target: T1, human EL (vascular endothelial lipase); test: cell-based or functional assay
[2] = biological target: T2, human LPL (lipoprotein lipase); test: cell-based or functional assay
[3] = biological target: T3, human HL (hepatic lipase); test: cell-based or functional assay
[4] = biological target: T4, human [1-305]-mouse chimeric EL; test: cell-based or functional assay
[5] = biological target: cynomolgus monkey EL (cynomolgus monkey); test: cell-based or functional assay
[6] = biological target: T6, cynomolgus monkey EL (cynomolgus monkey); test: Biacore; EL captured by anti-C2-tag Ab; bivalent fit
T6 construct: Heparin extract; also called cynomolgus EL; Cynomolgus EL
Protocol: (§1) The binding affinities of anti-EL antibodies were measured using Biacore. […] Then, anti-EL humanized antibodies were added and the binding affinities were calculated by bivalent fitting of BIAevaluation software.

[7] = biological target: T4, human [1-305]-mouse chimeric EL; test: as above
Protocol: as §1

[8] = biological target: baboon EL (baboon); test: cell-based or functional assay
[9] = biological target: T5, mouse EL; test: cell-based or functional assay

Row | Binder | Neutralizing activity IC50 [1] [nM] | Neutralizing activity IC50 [2] [nM] | Neutralizing activity IC50 [3] [nM] | Neutralizing activity IC50 [4] [nM] | Neutralizing activity IC50 [5] [nM] | Kd [6] [nM] | koff [6] [s⁻¹] | kon [6] [M⁻¹ s⁻¹] | Kd [7] [nM] | koff [7] [s⁻¹] | kon [7] [M⁻¹ s⁻¹] | Neutralizing activity IC50 [8] [nM] | Neutralizing activity IC50 [9] [nM]
1 | h13B3-S1 (antibody, V domains shown) VH: QVQLVQSGAEVKKPGASVKVSCKASGYTFTEYTMHWVRQAPGQGLEWMGSINPYYGGTSYNEKFKDRVTMTRDTSTSTVYMELSSLRSEDTAVYYCARYGNYVGYFDYWGQGTTVTVSS VL: EIVLTQSPGTLSLSPGERATLSCRASSSVHYMYWYQQKPGQAPRLLIYYTSNLAPGIPDRFSGSGSGTDFTLTISRLEPEDFAVYYCQQFTSSPYTFGGGTKVEIK | 2.3 | > 400 | > 400 | 3 | – | – | – | – | – | – | – | – | –
2 | h16F6-S2 (antibody, V domains shown) VH: QVQLVQSGAEVKKPGASVKVSCKASGYTFTTYWIAWVRQAPGQGLEWMGEILPGSAKTKYNKKFKGRVTMTRDTSTSTVYMELSSLRSEDTAVYYCAVYDYGADYWGQGTTVTVSS VL: DIQMTQSPSSLSASVGDRVTITCKASQDVYTAVAWYQQKPGKSPKLLIYSASYRFTGVPSRFSGSGAGTDFTLTISSLQPEDFATYYCQQHYSIPRTFGGGTKVEIK | – | – | – | – | – | – | – | – | – | – | – | 3.3 | 3
3 | h16F6-S3 (antibody, V domains shown) VH: QVQLVQSGAEVKKPGASVKVSCKASGYTFTTYWIAWVRQAPGQGLEWMGEILPGSAKTKYNKKFKGRVTMTRDTSTSTVYMELSSLRSEDTAVYYCAVYDYGADYWGQGTTVTVSS VL: DIQMTQSPSSLSASVGDRVTITCKASQDVYTAVAWYQQKPGKSPKLLIYSASYRFTGVPSRFTGSGAGTDFTLTISSLQPEDFATYYCQQHYSIPRTFGGGTKVEIK | – | – | – | – | – | – | – | – | – | – | – | 3.1 | 3.3
4 | h16F6-S4 (antibody, V domains shown) VH: QVQLVQSGAEVKKPGASVKVSCKASGYTFTTYWIAWVRQAPGQGLEWMGEILPGSAKTKYNKKFKGRVTMTRDTSTSTVYMELSSLRSEDTAVYYCAVYDYGADYWGQGTTVTVSS VL: DIQMTQSPSSLSASVGDRVTITCKASQDVYTAVAWYQQKPGKSPKLLIYSASYRFTGVPSRFTGSGAGTDFTFTISSLQPEDFATYYCQQHYSIPRTFGGGTKVEIK | – | – | – | – | – | – | – | – | – | – | – | 2.6 | 2
5 | h53A11-S1 (antibody, V domains shown) VH: QVQLVQSGAEVKKPGASVKVSCKASGYTFTDYTMHWVRQAPGQRLEWMGGINPYYGGTTYNEKFKDRVTITRDTSASTAYMELSSLRSEDTAVYYCAKGDYYGGSYNYWGQGTTVTVSS VL: EIVMTQSLATLSVSPGERATLSCRASQDISNSLHWYQQKPGQAPRLLIKYASQSISGIPARFSGSGSGTEFTLTISSLQSEDFAVYYCQQSNSWPYTFGQGTKLEIK | 9.7 | > 400 | > 400 | 2.1 | – | – | – | – | – | – | – | – | –
6 | h23H8-S2 (antibody, V domains shown) VH: QVQLVQSGAEVKKPGASVKVSCKASGYTFTDNTIHWVRQAPGQGLEWMGHINPYYGGTNNNEKFKDRVTMTRDTSISTAYMELSRLRSDDTAVYYCARKGIYYSSPFDYWGQGTTVTVSS VL: DIQMTQSPSSLSASVGDRVTITCRASQDINNYLNWYQQKPGKAPKLLISYTSKLHSGVPSRFSGSGSGTDFTLTISSLQREDFATYYCQQGNTLPFTFGQGTKLEIK | 4.5 | > 400 | > 400 | 1.7 | – | – | – | – | – | – | – | – | –

Continued, values first:

Row | Neutralizing activity IC50 [1] [nM] | Neutralizing activity IC50 [2] [nM] | Neutralizing activity IC50 [3] [nM] | Neutralizing activity IC50 [4] [nM] | Neutralizing activity IC50 [5] [nM] | Kd [6] [nM] | koff [6] [s⁻¹] | kon [6] [M⁻¹ s⁻¹] | Kd [7] [nM] | koff [7] [s⁻¹] | kon [7] [M⁻¹ s⁻¹] | Neutralizing activity IC50 [8] [nM] | Neutralizing activity IC50 [9] [nM] | Binder
7 | 4.6 | > 400 | > 400 | 5.3 | 1.9 | 2 | 0.0001 | 51000 | 9.3 | 0.00022 | 24000 | – | – | h16B3-S2 (antibody, V domains shown, humanized) VH: EVQLVESGGGLVQPGGSLRLSCAASGFTFSGYTMSWVRQAPGKGLEWVSEISFARDRAFYPDTVKGRFTISRDNSKNTLYLQMNSLRAEDTAVYYCARLGGRNHDYWYFDVWGQGTTVTVSS VL: DIVMTQSPDSLAVSLGERATINCRASESVEYYGTSLMQWYQQKPGQPPKLLIYAASNVESGVPDRFSGSGSGTDFTLTISSLQAEDVAVYYCQQSWKVPFTFGQGTKLEIK
8 | – | – | – | – | – | – | – | – | – | – | – | 2 | 2.1 | h16F6-S5 (antibody, V domains shown) VH: QVQLVQSGAEVKKPGASVKVSCKASGYTFTTYWIAWVRQAPGQGLEWMGEILPGSAKTKYNKKFKGRVTMTRDTSTSTVYMELSSLRSEDTAVYYCAVYDYGADYWGQGTTVTVSS VL: DIQMTQSPSSLSASVGDRVSITCKASQDVYTAVAWYQQKPGKSPKLLIYSASYRFTGVPSRFTGSGAGTDFTFTISSLQPEDFATYYCQQHYSIPRTFGGGTKVEIK
9 | 3.9 | > 1800 | > 1800 | 2.2 | 1.6 | 0.59 | 0.00026 | 440000 | 31 | 0.00086 | 27000 | – | – | h55A1-S1 (antibody, V domains shown, humanized) VH: QVQLVQSGSELKKPGASVKVSCKASGYTFTNYGMNWVRQAPGQGLEWMGWINTYSGVPTYAGDFKGRFVFSLDTSVSTAYLQISSLKAEDTAVYYCARRGYYGRRYFDVWGKGTTVTVSS VL: DIVLTQSPASLAVSPGQRATITCKASQSVDYDVDSYMHWYQQKPGQPPKLLIYAASNLASGVPARFSGSGSGTDFTLTINPVEANDTANYYCQQTIEDPPTFGGGTKVEIK
